{"source": "patent US20240382614A1", "about": "“Self-Assembling Nanoparticles Based On Amphiphilic Peptides for Drug Delivery Applications” (Barinthus Biotherapeutics North America, Inc., priority 2021, published 2024)", "key": {"[1]": {"system": "T1, Ac-A′SK(Ac)SB-AMC (Compound 18)", "T1 sequence": "XSKSX"}, "[2]": {"system": "T2, Ac-A′SK(Ac)SnL-AMC (Compound 24)", "T2 sequence": "XSKSX"}, "[3]": {"system": "T3, Ac-A′SK(Ac)VB-AMC (Compound 16)", "T3 sequence": "XSKVX"}, "[4]": {"system": "T4, Ac-A′SK(Ac)VnL-AMC (Compound 22)", "T4 sequence": "XSKVX"}, "[5]": {"system": "T5, Ac-A′SKSB-AMC (Compound 19)", "T5 sequence": "XSKSX"}, "[6]": {"system": "T6, Ac-A′SKSnL-AMC (Compound 25)", "T6 sequence": "XSKSX"}, "[7]": {"system": "T7, Ac-A′SKVB-AMC (Compound 17)", "T7 sequence": "XSKVX"}, "[8]": {"system": "T8, Ac-A′SKVnL-AMC (Compound 23)", "T8 sequence": "XSKVX"}, "[9]": {"system": "T9, Ac-A′SPVB-AMC (Compound 15)", "T9 sequence": "XSPVX"}, "[10]": {"system": "T10, Ac-A′SPVnL-AMC (Compound 21)", "T10 sequence": "XSPVX"}, "[11]": {"system": "T11, Ac-A′VB-AMC (Compound 14)", "T11 sequence": "XVX"}, "[12]": {"system": "T12, Ac-A′VnL-AMC (Compound 20)", "T12 sequence": "XVX"}, "[13]": {"system": "coculture of antigen presenting cells and CD4 T cell clones (“OT-II cells”)", "assay": "IFNγ and IL-17 in supernatant of coculture of antigen presenting cells and OT-II CD4 T cell clones", "type": "cell-based", "settings": "D1 in particles of Compound 113 with D2 Compound 166, with or without D3 Compound 4 (Table 10)", "procedure": "The cell culture supernatant was assessed for the cytokines IFNγ and IL-17 to assess for the proliferation of Th1- and Th17-type CD4 T cells, respectively (FIG. 11)."}, "[14]": {"system": "coculture of antigen presenting cells and CD4 T cell clones (“OT-II cells”)", "assay": "CD4 T cell induction in coculture of antigen presenting cells and OT-II CD4 T cell clones", "type": "cell-based", "settings": "D1 in particles of Compound 113 with D2 Compound 166 and D3 MDP, TDB, MPL, LPS or Compound 4 (Table 9, FIG. 10)"}, "[15]": {"assay": "Solubility and loading of mTOR inhibitors in nanoparticle micelles of amphiphiles S-B-[U]-H", "type": "physicochemical", "settings": "admixed with amphiphile Compound 113"}, "[16]": {"assay": "Turbidity (OD 490 nm) of particle formulations", "type": "physicochemical", "settings": "Table 15; no 2nd amphiphile", "procedure": "It was unknown how the surface group (SG) would impact the tolerability of amphiphiles of formula S-B-H-D carrying an immunostimulant. Therefore, to evaluate the impact of surface group composition on tolerability, amphiphiles of varying SG and drug molecule composition were prepared and evaluated in mice (Table 15 and FIG. 14)."}}, "data": [{"compound": "Cathepsin B (Sino Biological)", "values": [{"measurement": "percent of peptide-AMC that is cleaved", "setting": "[1]", "result": "norleucine (nL) and alpha-amino butyric (B or aBut) are tolerated at the P1 position"}, {"measurement": "percent of peptide-AMC that is cleaved", "setting": "[2]", "result": "norleucine (nL) and alpha-amino butyric (B or aBut) are tolerated at the P1 position"}, {"measurement": "percent of peptide-AMC that is cleaved", "setting": "[3]", "result": "norleucine (nL) and alpha-amino butyric (B or aBut) are tolerated at the P1 position"}, {"measurement": "percent of peptide-AMC that is cleaved", "setting": "[4]", "result": "norleucine (nL) and alpha-amino butyric (B or aBut) are tolerated at the P1 position"}, {"measurement": "percent of peptide-AMC that is cleaved", "setting": "[5]", "result": "norleucine (nL) and alpha-amino butyric (B or aBut) are tolerated at the P1 position"}, {"measurement": "percent of peptide-AMC that is cleaved", "setting": "[6]", "result": "norleucine (nL) and alpha-amino butyric (B or aBut) are tolerated at the P1 position"}, {"measurement": "percent of peptide-AMC that is cleaved", "setting": "[7]", "result": "norleucine (nL) and alpha-amino butyric (B or aBut) are tolerated at the P1 position"}, {"measurement": "percent of peptide-AMC that is cleaved", "setting": "[8]", "result": "norleucine (nL) and alpha-amino butyric (B or aBut) are tolerated at the P1 position"}, {"measurement": "percent of peptide-AMC that is cleaved", "setting": "[9]", "result": "norleucine (nL) and alpha-amino butyric (B or aBut) are tolerated at the P1 position"}, {"measurement": "percent of peptide-AMC that is cleaved", "setting": "[10]", "result": "norleucine (nL) and alpha-amino butyric (B or aBut) are tolerated at the P1 position"}, {"measurement": "percent of peptide-AMC that is cleaved", "setting": "[11]", "result": "norleucine (nL) and alpha-amino butyric (B or aBut) are tolerated at the P1 position"}, {"measurement": "percent of peptide-AMC that is cleaved", "setting": "[12]", "result": "norleucine (nL) and alpha-amino butyric (B or aBut) are tolerated at the P1 position"}]}, {"compound": "CNC(=O)Nc1ccc(-c2nc(N3CC4CCC(C3)O4)c3cnn(C4CCC5(CC4)OCCO5)c3n2)cc1", "note": "[WYE132]", "values": [{"measurement": "suppression of Th1-type CD4 T cell response (IFNγ)", "setting": "[13]", "result": "substantially improved T cell response suppression as compared with Rapa, CC223 and OSI-027"}]}, {"compound": "CCC(=O)N1CCN(c2ccc(-n3c(=O)ccc4cnc5ccc(-c6cnc7ccccc7c6)cc5c43)cc2C(F)(F)F)CC1", "note": "[Torin 1]", "values": [{"measurement": "suppression of T cell responses against D2", "setting": "[14]", "result": "greater T cell suppression as compared with Rapamycin"}, {"measurement": "suppression of Th1-type CD4 T cell response (IFNγ)", "setting": "[13]", "result": "substantially improved T cell response suppression as compared with Rapa, CC223 and OSI-027"}, {"measurement": "solubility in DMSO and aqueous buffer", "setting": "[15]", "result": "markedly improved the solubility"}]}, {"compound": "COc1ccc(-c2ccc3c(N4CCOC[C@@H]4C)nc(N4CCOC[C@@H]4C)nc3n2)cc1CO", "note": "[AZD8055]", "values": [{"measurement": "suppression of Th1-type CD4 T cell response (IFNγ)", "setting": "[13]", "result": "substantially improved T cell response suppression as compared with Rapa, CC223 and OSI-027"}]}, {"compound": "CCOCc1nc2c(N)nc3ccccc3c2n1CC(C)(C)O", "note": "[Compound R848]", "values": [{"measurement": "Turbidity", "setting": "[16]", "result": 0.039}]}, {"compound": "CC(C)n1nc(-c2ccc3oc(N)nc3c2)c2c(N)ncnc21", "note": "[INK-128]", "values": [{"measurement": "suppression of Th1-type CD4 T cell response (IFNγ)", "setting": "[13]", "result": "substantially improved T cell response suppression as compared with Rapa, CC223 and OSI-027"}]}]}
